Paper PMC9305271

How the values were obtained:
[1] = molecular target: bACE2-Ra-eGFP, full length, on BHK-21 cells (Rhinolophus affinis (intermediate horseshoe bat)); test: flow cytometry on cells
[2] = molecular target: intermediate horseshoe bat ACE2 (bACE2-Ra), peptide domain, residues 19-615 (Rhinolophus affinis (intermediate horseshoe bat)); test: SPR
[3] = molecular target: intermediate horseshoe bat ACE2 (bACE2-Ra), peptidase domain, residues 19-615 (Rhinolophus affinis (intermediate horseshoe bat)); test: SPR

Substance | double-positive rate [1] | Kd [2] | Kd [3]
SARS-CoV-2 receptor-binding domain (RBD) (from UniProt P0DTC2 319-541) (domain or fragment) | 31.6% | 448 nM | –
SARS-CoV-2 receptor-binding domain (prototype), residues 319-541 (from UniProt P0DTC2 319-541) (domain or fragment) | – | – | 547 nM
